From patent publication US20260061051A1 (JUNO THERAPEUTICS, published 2026)

Assays:
[1] = target: T1, Cynomolgus macaque (cyno) DLL3 expressed on 293H cells (cynomolgus macaque, UniProt Q9NYJ7 27-618 (human entry)); test: flow cytometry on 293H cells expressing cyno DLL3, Alexa 647 anti-human IgG1 secondary, 0.6 to 200 nM
T1 construct: also called Cyno DLL3 cell; cyno DLL3 ORF-GFP
T1 chain: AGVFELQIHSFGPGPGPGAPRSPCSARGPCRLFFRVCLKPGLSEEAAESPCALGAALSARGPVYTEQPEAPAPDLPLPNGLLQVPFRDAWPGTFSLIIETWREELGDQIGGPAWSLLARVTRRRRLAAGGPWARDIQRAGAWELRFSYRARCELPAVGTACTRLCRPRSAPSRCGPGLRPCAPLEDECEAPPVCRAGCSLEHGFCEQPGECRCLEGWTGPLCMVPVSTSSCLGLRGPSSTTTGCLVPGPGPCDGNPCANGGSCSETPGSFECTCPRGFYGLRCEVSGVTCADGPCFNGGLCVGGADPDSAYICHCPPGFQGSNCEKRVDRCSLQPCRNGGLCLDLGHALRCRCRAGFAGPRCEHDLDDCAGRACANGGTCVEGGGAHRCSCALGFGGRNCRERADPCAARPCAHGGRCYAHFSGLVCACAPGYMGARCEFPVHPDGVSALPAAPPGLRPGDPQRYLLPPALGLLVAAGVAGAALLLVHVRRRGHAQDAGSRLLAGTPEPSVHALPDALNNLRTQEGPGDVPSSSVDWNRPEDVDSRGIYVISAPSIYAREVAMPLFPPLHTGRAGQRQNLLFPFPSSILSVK
Procedure: (§1) Human DLL3 or cynomolgus macaque (cyno) DLL3 expressing cell lines were established by transfecting 293H cells with human DLL3 ORF-GFP or cyno DLL3 ORF-GFP plasmids and selecting stable single clone. A dose response curve for the anti-DLL3 mAb-1 binding to 293H cells expressing either human DLL3 or cyno DLL3 was generated by flow cytometry. Cells were incubated with increasing concentrations of anti-DLL3 mAb-1 in the range of 0.6 to 200 nM. Cells were washed then incubated with a secondary antibody (Alexa 647 conjugated anti-human IgG1) to measure the amount of antibody bound to the 293H cells. A dose response curve was fitted from the data using the non-linear regression function in GraphPad Prism version 8. Half-maximal concentration (EC₅₀) value was calculated from the dose response curve.

[2] = target: T2, Human DLL3 (hDLL3) antigen (human, UniProt Q9NYJ7 27-492); test: SPR, Biacore 8K, antibody captured on protein G chip, hDLL3 as analyte, multi-cycle
T2 construct: Soluble analyte in SPR; also called hDLL3 protein; soluble target antigen DLL3
T2 sequence: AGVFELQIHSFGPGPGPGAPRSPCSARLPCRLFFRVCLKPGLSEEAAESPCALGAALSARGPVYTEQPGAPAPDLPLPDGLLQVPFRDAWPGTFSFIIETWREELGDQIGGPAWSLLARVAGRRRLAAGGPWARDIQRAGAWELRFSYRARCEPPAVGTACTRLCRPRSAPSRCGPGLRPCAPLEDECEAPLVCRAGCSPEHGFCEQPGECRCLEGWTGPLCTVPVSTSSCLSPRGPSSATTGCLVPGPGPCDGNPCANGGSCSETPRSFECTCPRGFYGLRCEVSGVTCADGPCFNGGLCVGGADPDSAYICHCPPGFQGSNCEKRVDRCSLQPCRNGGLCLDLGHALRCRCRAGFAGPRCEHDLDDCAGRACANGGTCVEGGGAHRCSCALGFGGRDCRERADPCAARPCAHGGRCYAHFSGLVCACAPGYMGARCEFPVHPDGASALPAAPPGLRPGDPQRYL
Procedure: The Biacore SPR 8K machine was used for kinetics binding analysis. The sensor surface of a protein G chip (series s Cat #29179315) was used to capture the ligands. 2 μg/ml of purified anti-DLL3 antibody was diluted in running buffer (0.01M HEPES, 0.15 NaCl, 3 mM EDTA, 0.005% Tween-20). The diluted antibody was then injected at a flow rate of 10 μL/min for 60 seconds. Human DLL3 (hDLL3) antigen was diluted in the same running buffer to 6 concentrations (30, 10, 3.33, 1.11, 0.37 and 0 nM). hDLL3 was then injected on all channels (with each channel having its own reference point) at a flow rate of 30 uL/min for an association phase of 300 seconds, followed by 600 seconds of dissociation. 6 cycles of running analyte were repeated according to analyte concentrations in ascending order. After each cycle of interaction analysis, the sensor chip surface was regenerated completely with Glycine-HCL pH 1.5 at a flow rate of […] for 60 s. The binding of the anti-DLL3 antibody and hDLL3 protein was analyzed by multi-cycle method.

[3] = target: T3, Human DLL3 expressed on 293H cells (human, UniProt Q9NYJ7 27-618); test: flow cytometry on 293H cells expressing human DLL3, Alexa 647 anti-human IgG1 secondary, 0.6 to 200 nM
T3 construct: also called Human DLL3 cell; human DLL3 ORF-GFP
T3 sequence: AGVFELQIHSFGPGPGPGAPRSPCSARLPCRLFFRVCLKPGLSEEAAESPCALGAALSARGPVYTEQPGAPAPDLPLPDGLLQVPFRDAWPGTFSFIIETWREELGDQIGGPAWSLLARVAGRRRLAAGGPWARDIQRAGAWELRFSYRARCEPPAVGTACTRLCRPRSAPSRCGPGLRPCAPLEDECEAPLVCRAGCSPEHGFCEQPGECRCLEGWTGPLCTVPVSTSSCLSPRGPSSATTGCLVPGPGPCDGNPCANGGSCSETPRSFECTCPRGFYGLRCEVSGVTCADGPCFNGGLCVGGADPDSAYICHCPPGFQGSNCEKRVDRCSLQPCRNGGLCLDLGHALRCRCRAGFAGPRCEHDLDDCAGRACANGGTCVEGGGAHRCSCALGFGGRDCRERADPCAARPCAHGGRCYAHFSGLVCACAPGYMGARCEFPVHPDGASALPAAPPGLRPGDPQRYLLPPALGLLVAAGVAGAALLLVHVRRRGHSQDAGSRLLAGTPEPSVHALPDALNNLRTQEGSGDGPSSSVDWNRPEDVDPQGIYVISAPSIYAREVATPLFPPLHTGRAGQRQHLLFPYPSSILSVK
Procedure: as §1

B1: DLL3-mAb-1 (antibody, human IgG1, kappa, V domains shown)
VH: QVQLQESGPGLVKPSQTLSLTCTVSGDSISSDGYYWSWIRQHPGKGLEWIGYIYYSGNTYYNPSLKSRVTISVDTSKNQFSLKLTSVTAADTAIYYCAIDTASALAYWGQGTLVTVSS
VL: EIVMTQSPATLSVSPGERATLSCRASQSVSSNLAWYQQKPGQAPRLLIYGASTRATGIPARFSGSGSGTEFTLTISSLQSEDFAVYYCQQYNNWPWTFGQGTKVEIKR
notes: It was captured on a protein G chip and detected with anti-human IgG1, and it is a fully human antibody with a fixed human kappa light chain; also called anti-DLL3 mAb-1; anti-DLL3 antibody DLL3-mAb-1
- EC50 [1]: 10.4 nM
- Kd [2]: 58.8 nM
- koff [2]: 0.0137 s⁻¹
- kon [2]: 233000 M⁻¹ s⁻¹
- EC50 [3]: 15.6 nM
